Changes are numbered by the printed parent chain. Numbers in names are those of the source.
Assays:
[1] = biological target: T1, N-terminally TAMRA-labelled ubiquitin (UniProt P0CG48 1-76, TAMRA on the N-terminus); assay: fluorescence polarisation; stopped-flow, association: equal volumes of USP4 (100–1,000 nM) and TAMRA-ubiquitin rapidly mixed; 20 °C; 20 mM HEPES pH 7.5, 150 mM NaCl, 5 mM DTT, 0.05% Tween 20; single exponential, kon as slope of Kobs against USP4 concentration; settings: both partners purified
T1 construct: ubiquitin, the cut product of the ubiquitin precursors; also called TAMRAUb; TAMRA-Ubiquitin

[2] = biological target: T1, N-terminally TAMRA-labelled ubiquitin; assay: fluorescence polarisation; equilibrium: different concentrations of USP4 with 2.5 nM TAMRA-ubiquitin; same setup as the Ub–Rhod assays (25 °C, 20 mM HEPES pH 7.5, 150 mM NaCl, 5 mM DTT, 0.05% Tween 20); one-site binding model accounting for ligand depletion; settings: both partners purified
[3] = biological target: T1, N-terminally TAMRA-labelled ubiquitin; assay: fluorescence polarisation; stopped-flow, dissociation: USP4 constructs (12.5–250 nM) incubated with 2.5 nM TAMRA-ubiquitin 10–30 min, mixed with equal volume of 2.5 μM non-labelled ubiquitin; 20 °C; 20 mM HEPES pH 7.5, 150 mM NaCl, 5 mM DTT, 0.05% Tween 20; global fit to a two-phase decay (k_slow, k_fast); settings: both partners purified
[4] = biological target: T2, USP4 CD (residues 296–925), biotinylated on lysines (human, UniProt Q13107 296-925, biotin on lysines (half molar amounts of EZ-Link Sulfo-NHS-LC-LC-biotin)); assay: SPR; Biacore T100, 25 °C; ~100 RU of biotinylated USP4 construct on SA chip; DUSP–Ubl concentration series flowed at 30 μl/min in 20 mM HEPES pH 7.5, 150 mM NaCl, 5 mM DTT, 0.05% Tween 20 with NSB reducer; apparent KD from EvilFit after removing the slow nonspecific off-rate component; settings: both partners purified
T2 construct: USP4, human, catalytic domain with the insert, residues 296-925; same construct as m2, biotinylated for capture on the SA sensor chip; also called immobilized USP4 CD; biotinylated USP4; source: E. coli BL21(DE3), purified, then biotinylated
T2 sequence (looked up): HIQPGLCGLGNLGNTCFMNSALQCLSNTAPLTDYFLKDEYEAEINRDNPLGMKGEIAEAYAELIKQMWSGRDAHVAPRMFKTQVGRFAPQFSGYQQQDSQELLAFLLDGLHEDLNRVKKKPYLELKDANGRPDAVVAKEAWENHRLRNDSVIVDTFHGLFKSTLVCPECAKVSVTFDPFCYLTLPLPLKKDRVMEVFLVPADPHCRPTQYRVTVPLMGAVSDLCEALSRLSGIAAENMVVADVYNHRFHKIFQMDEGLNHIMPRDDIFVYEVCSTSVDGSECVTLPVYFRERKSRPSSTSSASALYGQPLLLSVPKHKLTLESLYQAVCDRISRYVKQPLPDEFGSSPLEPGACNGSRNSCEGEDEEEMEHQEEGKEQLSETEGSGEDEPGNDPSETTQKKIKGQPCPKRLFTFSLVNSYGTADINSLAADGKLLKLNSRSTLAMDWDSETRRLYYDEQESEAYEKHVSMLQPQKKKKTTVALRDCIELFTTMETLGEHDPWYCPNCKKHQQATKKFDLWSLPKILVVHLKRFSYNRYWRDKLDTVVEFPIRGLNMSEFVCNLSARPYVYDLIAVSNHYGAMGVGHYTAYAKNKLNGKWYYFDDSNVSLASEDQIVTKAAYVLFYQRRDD

[5] = biological target: T3, USP4 insert (residues 483–765), biotinylated on lysines (human, UniProt Q13107 483-765, biotin on lysines (half molar amounts of EZ-Link Sulfo-NHS-LC-LC-biotin)); assay: as above; settings: both partners purified
T3 construct: USP4, human, the domain inserted within the catalytic core (carries a Ubl domain), residues 483-765; source: E. coli BL21(DE3), purified, then biotinylated
T3 sequence (looked up): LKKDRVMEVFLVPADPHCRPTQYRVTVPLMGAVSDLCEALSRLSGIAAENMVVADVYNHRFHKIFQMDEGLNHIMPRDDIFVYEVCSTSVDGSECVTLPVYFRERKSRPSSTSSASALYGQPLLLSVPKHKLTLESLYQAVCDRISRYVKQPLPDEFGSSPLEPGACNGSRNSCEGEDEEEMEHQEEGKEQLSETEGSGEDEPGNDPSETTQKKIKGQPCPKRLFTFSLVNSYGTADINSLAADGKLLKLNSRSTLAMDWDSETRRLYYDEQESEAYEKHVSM

[6] = biological target: T4, USP4 catalytic domain (USP4 CD, residues 296–925) (human, UniProt Q13107 296-925); assay: cell-based or functional assay
T4 sequence (looked up): T2 sequence (looked up)

B1: USP4 CD F386G (domain or fragment, human, UniProt Q13107 296-925, looked up)
chain: T2 sequence (looked up) with F91G
notes: USP4, human, catalytic domain residues 296-925, switching loop mutant F386G; made with the QuickChange mutagenesis kit
[1]
  kon: 35000 ± 7000 M⁻¹ s⁻¹
[2]
  Kd: ~1 µM
[3]
  k_fast (dissociation, fast component): 0.12 ± 0.016 s⁻¹
  k_slow (dissociation, slow component): 0.015 ± 0.0006 s⁻¹

B2: USP4 FL F386G (enzyme, human, UniProt Q13107 8-925, looked up)
chain: RERPDAETQKSELGPLMRTTLQRGAQWYLIDSRWFKQWKKYVGFDSWDMYNVGEHNLFPGPIDNSGLFSDPESQTLKEHLIDELDYVLVPTEAWNKLLNWYGCVEGQQPIVRKVVEHGLFVKHCKVEVYLLELKLCENSDPTNVLSCHFSKADTIATIEKEMRKLFNIPAERETRLWNKYMSNTYEQLSKLDNTVQDAGLYQGQVLVIEPQNEDGTWPRQTLQSKSSTAPSRNFTTSPKSSASPYSSVSASLIANGDSTSTCGMHSSGVSRGGSGFSASYNCQEPPSSHIQPGLCGLGNLGNTCFMNSALQCLSNTAPLTDYFLKDEYEAEINRDNPLGMKGEIAEAYAELIKQMWSGRDAHVAPRMFKTQVGRFAPQGSGYQQQDSQELLAFLLDGLHEDLNRVKKKPYLELKDANGRPDAVVAKEAWENHRLRNDSVIVDTFHGLFKSTLVCPECAKVSVTFDPFCYLTLPLPLKKDRVMEVFLVPADPHCRPTQYRVTVPLMGAVSDLCEALSRLSGIAAENMVVADVYNHRFHKIFQMDEGLNHIMPRDDIFVYEVCSTSVDGSECVTLPVYFRERKSRPSSTSSASALYGQPLLLSVPKHKLTLESLYQAVCDRISRYVKQPLPDEFGSSPLEPGACNGSRNSCEGEDEEEMEHQEEGKEQLSETEGSGEDEPGNDPSETTQKKIKGQPCPKRLFTFSLVNSYGTADINSLAADGKLLKLNSRSTLAMDWDSETRRLYYDEQESEAYEKHVSMLQPQKKKKTTVALRDCIELFTTMETLGEHDPWYCPNCKKHQQATKKFDLWSLPKILVVHLKRFSYNRYWRDKLDTVVEFPIRGLNMSEFVCNLSARPYVYDLIAVSNHYGAMGVGHYTAYAKNKLNGKWYYFDDSNVSLASEDQIVTKAAYVLFYQRRDD
notes: USP4, human, residues 8-925, switching loop mutant F386G; made with the QuickChange mutagenesis kit
[3]
  k_fast (dissociation, fast component): 0.26 ± 0.01 s⁻¹
  k_slow (dissociation, slow component): 0.024 ± 0.002 s⁻¹

B3: USP4 DUSP–Ubl domain (residues 8–228) (domain or fragment, human, UniProt Q13107 8-228, looked up)
chain: RERPDAETQKSELGPLMRTTLQRGAQWYLIDSRWFKQWKKYVGFDSWDMYNVGEHNLFPGPIDNSGLFSDPESQTLKEHLIDELDYVLVPTEAWNKLLNWYGCVEGQQPIVRKVVEHGLFVKHCKVEVYLLELKLCENSDPTNVLSCHFSKADTIATIEKEMRKLFNIPAERETRLWNKYMSNTYEQLSKLDNTVQDAGLYQGQVLVIEPQNEDGTWPRQT
notes: USP4, human, N-terminal tandem DUSP–Ubl domain, residues 8-228
[4]
  Kd: ~100 µM
[5]
  Kd: ~44 µM
[6]
  Ub–Rhod catalytic rate of USP4 CD (50 nM, 5 μM substrate) with DUSP–Ubl added in trans at different concentrations up to 150 μM: ~9 fold

B4: USP4 DUSP–Ubl Y136A (domain or fragment, human, UniProt Q13107 8-228, looked up)
chain: B3 chain with Y129A
notes: USP4, human, DUSP–Ubl domain residues 8-228 with Y136A at the interface of the DUSP and Ubl domains; also called mutant DUSP–Ubl
[4]
  binding result: binds
[5]
  binding result: binds

Reference: PMC4243247 (Nature Communications, 2014)
